Experimental data taken from patent US7541183B2, “Growth and differentiation of adult muscle stem cells with activators or inhibitors of Wnt signaling” (Ottawa Health Research Institute, priority 2003, dated 2009).

Legend:
CD45+:Sca1+ muscle cells = type: cell-based
Method: Mononuclear cells were washed twice with DMEM supplemented with 5% FBS, and suspended at a concentration of 2−3×10^6 cells/ml. […] Primary antibodies were diluted at 1:200, and Streptavidin Tri-Color Conjugate was diluted 1:1000. After two washes with DMEM at 4° C., cells were separated on a MoFlo cytometer (DakoCytomation), equipped with 3 lasers. Sort gates were strictly defined based on isotype control stained cells and single antibody staining. Dead cells and debris were excluded by gating on forward and side scatter profiles. Sorting was performed using single cell mode to achieve the highest possible purity. The purity of sorted populations was routinely >98%.
Primary myoblasts were isolated from hind limb muscle of 3-week old Balb/c mice, and maintained in HAM's F-10 medium (Invitrogen) supplemented with 20% FBS, and 2.5 ng/ml bFGF (Invitrogen).
For co-culture experiments, primary myoblasts or Wnt-expressing cells were mixed with purified CD45^+:Sca1^+ cells at a ratio of 1:1, and seeded on Collagen-coated 2-well Permanox Chamber Slides (Lab-Tek). The density was 2×10^4 cells/chamber for co-culture in growth conditions, and 4×10^4 cells/chamber for differentiation experiments. […] Fluoroscein or Rhodamine conjugated antibodies (Chemicon) were used for secondary detection. Cover slides were mounted and analyzed using a Zeiss Axioscop fluorescent microscope.

[1] = test system: Myf5nLacZ+ satellite cells; assay: Impact of cardiotoxin injection on myogenic progenitors in injured muscle; type: in vivo, Myf5nLacZ mice; details: 18 hours post-ctx injection
Method: For direct analysis of sorted cell populations, cells were washed and suspended in phosphate-buffered saline (PBS), and cytospun onto silanized slides (DAKO). X-gal staining was performed as described previously (Kablar, 1997, Development 124, 4729-4738).
5 to 8 week-old mice were anaesthetised with Halothane gas. 25 μl of 10 μM cardiotoxin (Latoxan) was injected directly into the TA muscle, using a 29 G 1/2 insulin syringe. For cell proliferation assays, 0.3 mg/kg of 5-bromo-deoxyuridine (BrdU, Sigma) was injected intraperitoneally 90 minutes prior to sacrificing animals. Cells that had incorporated BrdU were detected by flow cytometry using a FITC conjugated anti-BrdU antibody (ED Pharmingen). For sFRP experiments, 100 ng of recombinant sFRP 2 and 3 (R&D Systems) were injected into regenerating TA muscle. Control animals received injections of equal volumes of PBS. For analysis of total TA cell populations, 1×10^4 mononuclear cells were plated on collagen-coated chamber slides overnight and then stained with anti-Desmin antibody (DAKO) at 1:200. Donkey anti-mouse FITC (Chemicon) at 1:500 was used for secondary detection.

Substance: Shh: recombinant Sonic Hedgehog (Shh-N, R&D Systems)
- increase in CD45+:Sca1+ cell survival (CD45+:Sca1+ muscle cells; 100 ng/ml Shh): 3-4 fold
- myogenic differentiation efficiency of CD45+:Sca1+ cells (CD45+:Sca1+ muscle cells; recombinant Shh at 10 or 100 ng/ml, cells alone or in co-culture with myoblasts): did not influence

Substance: cardiotoxin
- reduction in the number of Myf5nLacZ+ cells relative to uninjured muscle [1]: ~30 fold
- reduction in the number of Myf5nLacZ+ cells relative to uninjured muscle ([1]; listed as ctx): approximately 30 fold
- number of Myf5nLacZ+ cells ([1]; uninjured muscle 4.1×10^4±1.6×10^4): 1.18×10^3±1×10^3 cells/g tissue
